These results are taken from patent publication US20250034594A1, “RNA-GUIDED GENOME RECOMBINEERING AT KILOBASE SCALE” (THE BOARD OF TRUSTEES OF THE LELAND STANFORD JUNIOR …, priority 2021, published 2025).

The chains are these.
B1: SSAP_174: SEQ ID NO: 343; Hespellia stercorisuis (protein, listed as Hespellia stercorisuis)
chain: ADIKEELAKKVAEGTEDKKKLTKSMSIADLIKAMEPEIKKALPEVITPERFTRMALSALNTTPKLKECTQTSFLTALMNAAQLGLEPNTPLGQAYLIPYKNKGNLECQFQIGYKGLIDLSYRNRQMQIIQAQAVYENDEFEYELGLNPVLVHRPALQNRGAVKLFYGIFKLTNGGFGFEVMSKADMDAYAKEYSKAFDSSFSPWKSNYIGMAKKTVIKQAIKYAPLKTDFRKALSTDETIKTEFCEDMSEVQCKDIWDTEYKERSA
B2: SSAP_217: SEQ ID NO: 386; Streptomyces noursei (protein, listed as Streptomyces noursei)
chain: TSPIRAAVARRAGDPAALISQYTADFAAVLPSHIKPATFVRLAQGILRRDEKLAQAAANDPGQFMSVLLDAARLGLEPGTEAYYLVPFKGRVQGIVGWQGEIELMYRAGAISSVIVETVREDDVFVWTPGLVDRETPPRWEGPMSYPFHEVEWAGDRGPLRLVYAYAVMKGGATSKVVVLNAQDIERAKKTSQGADSPSSPWRQHEAAMWSKTAVHRLAKYVPTSAEYITAQVRAVRQADALSAPPVEEVVDVELVGDGQEQEARR
B3: SSAP_9: SEQ ID NO: 178; Bet Gammaproteobacteria (protein)
chain: EKPKLIQRFAERFSVDPNKLFDTLKATAFKQRDGSAPTNEQMMALLVVADQYGLNPFTKEIFAFPDKQAGIIPVVGVDGWSRIINQHDQFDGMEFKTSENKVSLDGAKECPEWMECIIYRRDRSHPVKITEYLDEVYRPPFEGNGKNGPYRVDGPWQTHTKRMLRHKSMIQCSRIAFGFVGIFDQDEAERIIEGQATHVVEPSVIPPEQVDDRTRGLVYKLIERAEASNAWNSALEYANEHFQGVELTFAKQEIFNAQQQAAKALTQPLAS
modifications: Gammaproteobacteria
notes: Bet Gammaproteobacteria
B4: SSAP_182: SEQ ID NO: 351; Lacrimispora sphenoides (protein)
chain: ADVKQELEKRAAGSGGQSVKLTKNMTIVDMVKALEPEIKRALPCILTPERFSRMALSAINNTPKLGECTPMSFIAALMNAAQLGLEPNTPLGQAYLIPYKNKGVLECQFQLGYRGLIDLAYRNERMQSIEAQVVYDNDEFSYELGLHPSLIHRPTFDEPGEIQAFYAIFRLDNGGFRFEVMSKNYVDSLCHALFKSIYFRFQSLEK
modifications: Lacrimispora sphenoides
B5: SSAP_157: SEQ ID NO: 326; Pseudoflavonifractor sp. An184 (protein, listed as Pseudoflavonifractor sp.)
chain: ATEKAIQRATGRAPALENRPALQQYIKQMSGEIKKALPSVMTPERFTRIVLSALSTNPKLAETTPQSFLGAMMTAAQLGLEPNTPLGQAYLLPYWNSKANAYECQFQLGYKGLLDLAYRSGEISVIQAHVVYSEDQFSYSFGLKPELKHIPAGEERGEPVYVYAIFHTKDGGYGFEVCSIDDIRAHAQRYSKSFQNGPWQTNFEEMAKKTVLKRVLKYAPLKSEFLRGLAQDETIKQEISEDMYMVEAAYAEPDVSSAEND
B6: SSAP_115: SEQ ID NO: 284; Lacrimispora amygdalina (protein, listed as Lacrimispora amygdalina)
chain: AVDVKNELERKASGQNSQVKLTKSMTIADMVKALEPEIKRALPAVLTPERFTRMALSAINNTPELAGCTPMSFIAAMMNAAQLGLEPNTPLGQAYLIPYKNKGVLECQFQIGYKGMIDLAYRTGQIQVIQGQAVREFDYFEYQYGLDPKLVHRPGEEERGEITFIYGLFRLSNGGYGFEVSNKADMDAFAAKYSKSFGSKYSPWTENYEDMAKKTVIKRALKYAPVSVDFQKAMSMDETIKTEISVDMSEIRNECPEISENGEAA
B7: SSAP_264: SEQ ID NO: 433; Cereibacter johrii (protein, listed as Cereibacter johrii)
chain: TENTAQAPAAARQLTPIQAISQTLESDAFAPKISASLDGTGISPARFKRAALACLSRPEASYLVEKCDRGSIFTAVMNAAAAELELHPALGQAYIVPRGGQAVLQVGYKGFIALASRAGLAVEADVIYAGDRFSIRKGTNPDVSVEPELDPAKRGEWVAVYVITHYASGAKTLTFMTRAEVEAIRNRYSDAYKRGGAGAKTWNESPEEMAKKTCIRRASKLWPISVPGGGDDDGGEVIEADPAPVPAPRMRDVTPGGGLDRLAASL
B8: SSAP_13: SEQ ID NO: 182 (protein)
chain: ANELGIFSVDNLNMTTIKQYLDGGGKASDAELVLLINLCKQNNMNPFMKEVYFIKYGNQPAQIVVSRDFYRKRAFQNPNFVGIEVGVIVLNKDGVLEHNEGTFKTHEQELVGAWARVHLKNTEIPVYVAVSYDEYVQMKDGHPNKMWTNKPCTMLGKVAESQALRMAFPAEFSGTYGEEEFPEPEKEPREVNGVKEPDRAQIESFDKEDYAAKKIEELKEKAQPQKEVVEETGEVIDEEPLEGF
B9: SSAP_156: SEQ ID NO: 325; Bacillus sp. AFS017336 (protein, listed as Bacillus sp.)
chain: ATNESLKNQITNKKTGEVPLTPAQQVSSYLKAYEGTFQQIAPKHFNTERFQRIALSEIRKNPKLLECSVPSLMSAVLQSVKLGLEPGLFGQAYLIPYGKEVQFQIGYRGLIELSQRSGRILKIQAREVYENDEFEVSYGIDDNIIHKPALDVDRGKVRLYYAVAWFKDGGAQFELMSISDVEKHRDKFSKTAKFGPWKDHFDEMAKKTVLKKLVKQLPMDVEFQEAVQEDETVRKTITDEPEILQAEFEIVDQPEISVE
B10: SSAP_89: SEQ ID NO: 258; Pantoea brenneri (protein, listed as Pantoea brenneri)
chain: SNQPPIASADLQKTQQSKQVANKTPEQTLVGFMNQPAMKSQLAAALPRHMTADRMIRIVTTEIRKTPQLAQCDQSSFIGAVVQCSQLGLEPGSALGHAYLLPFGNGRSKSGQSNVQLIIGYRGMIDLARRSGQIVSLSARVVRADDEFSFEYGLDENLVHRPGENEDAPITHVYAVARLKDGGTQFEVMTVKQVEKVKAQSKASSNGPWVTHWEEMAKKTVIRRLFKYLPVSIEMQKAVVLDEKAESDVDQDNASVLSAEYSVLESGDEATN
B11: SSAP_304: SEQ ID NO: 473; Desulfobacteraceae bacterium (protein, listed as Desulfobacteraceae bacterium)
chain: ATPNTPTTTDAGDFLKKSEKSLKNYAVRKYDFTSFLKSAMIAINDNTTLSECLRTEAGKKSLFNAMRYAATTGLSLNPQEGKAALIGYKNKAGEMVLNYQIMKNGLIDLALSSGKVEFVTADLVRANDEFSIKKSASGDDYSFSPAIRDRGEVIGFVAALKLKGSATYVKWMSTEEVAEFRDKYSSMYKNRPDASPWTHSFNGMGIKTVMKALLRSVSISPDVDAAVKSDDYIEAEFTVHGTTADDAVTQLQTPSKPVKAEEGQGELL
B12: SSAP_189: SEQ ID NO: 358; Asaia sp. W19 (protein, listed as Asaia sp.)
chain: SNALATPTEKLRTQITSMTGEFRNALPSHIKPEKFQRVVMTVVQQNQGLMNADRKSLLASCLKCAADGLIPDGREAALVMFGQQVQYMPMLAGIQKRIRNSGEIASIQAHVIYENDHFIWHQGIDASIEHRPLFPGDRGKAIGAYAVAKFKDGSDPQFEVMDVAAIEKVRAVSRAGKSGPWVQWWDEMARKTVFRRLSKWLPMDTEAEDLMRRDDENDAQDVAAPTIRVEAEAPSKLDALEHDDDGVVLEETRELEGSAA

The test system of one assay is gene editing with Cas9. Description: Screen of 322 new SSAP proteins, gene editing activity with Cas9 (Table 5). The format is cell-based. More on the design: Cas9 with SSAP activity: scale not given here.
Settings: not given
Summed up:
(§1)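 Synthetic SSAP candidates, identified computationally, were tested in editing screens using both Cas9 and dCas9.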
On to B1, for which the “Cas9 with SSAP activity” value was −3.891.
Same read-out and setting: next, B2: −1.938; B3: −0.503; B4: −1.549.
Same read-out and setting: next, B5: −3.533.
Turning to B6, the “Cas9 with SSAP activity” value is on record as −4.259.
On the same count and under the same terms, next, B7: 0.565; B8: −0.463.
Still for that read-out and setting: next, B9: 0.844; B10: 0.562.
On the same count and under the same terms, as for B11, the figure is −2.690.
Turning to B12, the “Cas9 with SSAP activity” value was −0.440.

Still in this assay, the particulars now being: normalized.
As for B1, the “Cas9 with SSAP activity (normalized)” value is reported as −0.617.
Still for that read-out and setting: as for B2, the figure is −1.023.
Still for that read-out and setting: as for B3, the figure is −1.380; as for B4, −1.689.
Same read-out and setting: next, B5: −1.181.
For B6, the “Cas9 with SSAP activity (normalized)” value is given as −0.733.
On the same count and under the same terms, as for B7, the figure is 0.375.
On the same count and under the same terms, next, B8: −0.403; B9: 2.230.
Still for that read-out and setting: next, B10: 0.533; B11: −0.447.
On to B12, for which the “Cas9 with SSAP activity (normalized)” value is −2.025.

For a further assay, the system named is gene editing with dCas9. Description: Screen of 322 new SSAP proteins, gene editing activity with dCas9 (Table 5). Type of assay: cell-based. Further details: dCas9 with SSAP activity: scale not given here.
Settings: not given
Summed up: as §1
Consider B1, for which the “dCas9 with SSAP activity” value was −5.563.
Same read-out and setting: next, B2: −5.577.
The same measure, in the same setting: as for B3, the figure is −5.773; as for B4, −5.663; as for B5, −5.734.
Still for that read-out and setting: as for B6, the figure is −5.725.
B7: the “dCas9 with SSAP activity” value is reported as −5.815.
On to B8, for which the “dCas9 with SSAP activity” value was −5.545.
On the same count and under the same terms, as for B9, the figure is −5.389; as for B10, 0.225; as for B11, −5.835.
Take B12: the “dCas9 with SSAP activity” value was −5.652.

Staying with this assay, now noted: normalized.
In the case of B1, the “dCas9 with SSAP activity (normalized)” value is given as −1.144.
Same read-out and setting: next, B2: −0.839; B3: −1.126; B4: −0.742.
Still for that read-out and setting: as for B5, the figure is −0.898.
Same read-out and setting: as for B6, the figure is −1.307; as for B7, −0.919.
B8: the “dCas9 with SSAP activity (normalized)” value was −0.758.
In the case of B9, the “dCas9 with SSAP activity (normalized)” value is −0.877.
With B10, the “dCas9 with SSAP activity (normalized)” value worked out at 0.240.
Same read-out and setting: as for B11, the figure is −0.886; as for B12, −0.952.

The test system of the next assay is gene editing with Cas9 and dCas9. Description: Screen of 322 new SSAP proteins, activity across all experiments (Cas9 and dCas9, Table 5). The format is cell-based. More on the design: scale not given here.
Settings: not given
An outline of the steps: as §1
As to B1, the “Activity across all experiments” value was −4.727.
Same read-out and setting: as for B2, the figure is −3.758; as for B3, −3.138.
As for B4, the “Activity across all experiments” value is on record as −3.606.
Still for that read-out and setting: as for B5, the figure is −4.633; as for B6, −4.992; as for B7, −2.625.
Still for that read-out and setting: as for B8, the figure is −3.004; as for B9, −2.272.
On the same count and under the same terms, next, B10: 0.393; B11: −4.262.
For the molecule B12, the “Activity across all experiments” value is recorded as −3.046.
